The target in this experiment is human 4-1BB on primary human CD8 T cells (human) (UniProt Q07011). Put plainly: cell-based or functional assay.

Two substances from US20240190999A1 can be followed below.

human 4-1BB on primary human CD8 T cells (human), sequence (Q07011 24-255 limits assumed): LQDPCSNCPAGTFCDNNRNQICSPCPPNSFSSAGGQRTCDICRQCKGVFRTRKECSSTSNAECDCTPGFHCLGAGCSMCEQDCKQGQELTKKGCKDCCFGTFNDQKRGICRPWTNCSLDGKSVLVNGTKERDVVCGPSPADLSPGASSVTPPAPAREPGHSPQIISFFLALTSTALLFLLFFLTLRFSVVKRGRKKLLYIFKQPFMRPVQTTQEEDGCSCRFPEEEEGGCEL

Anti-4-1BB mAb MOR-7480 (antibody): the EC50, IFNγ production by primary human CD8 T cells, Fc-mediated cross-linking came out at 0.42 nM and the EC50, IFNγ production by primary human CD8 T cells, antibody cross-linked via anti-Fc was found to be 0.21 nM.
Substance Anti-4-1BB mAb 20H4.9 (antibody) showed an EC50, IFNγ production by primary human CD8 T cells, antibody cross-linked via anti-Fc of 0.02 nM; an EC50, IFNγ production by primary human CD8 T cells, antibody soluble of 0.93 nM; an EC50, IFNγ production by primary human CD8 T cells, cross-linked via coated anti-Fc of 0.04 nM; an EC50, IFNγ production by primary human CD8 T cells, without Fc-cross-linking of 0.97 nM.
